From PMC6889415, “Global redox proteome and phosphoproteome analysis reveals redox switch in Akt” (Nature Communications, 2019) come the findings set out here.

The target of series [1] is T1, peroxiredoxin 2 (mouse (endogenous in 3T3-L1 adipocytes)), Q61171.
T1 chain: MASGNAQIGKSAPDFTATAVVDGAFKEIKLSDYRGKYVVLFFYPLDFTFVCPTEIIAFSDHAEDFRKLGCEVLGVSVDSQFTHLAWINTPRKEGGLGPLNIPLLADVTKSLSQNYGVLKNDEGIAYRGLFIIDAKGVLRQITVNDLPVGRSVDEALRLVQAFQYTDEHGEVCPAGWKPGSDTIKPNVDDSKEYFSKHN
Put plainly: non-reducing SDS-PAGE with immunoblot; adipocytes treated with BCNU or BCNU/AF for 2 or 24 h; washed and scraped in PBS with 100 mM NEM, 1% SDS; non-reducing SDS-PAGE, immunoblot; dimer/monomer ratio measured. The settings on record: remark: other sources report otherwise. A general note: A western blot detects proteins with antibodies after separation by electrophoresis.

Series [2] concerns the molecule itself. Described as above.

B1: peroxiredoxin 2, Q61171 1-198 (natural protein)
chain: T1 chain
In general, stoichiometry N refers to the number of molecules, sites or subunits per partner or assembly. B1: the stoichiometry N in series [1] is 2.

B2: peroxiredoxin 3 (natural protein, mouse (endogenous in 3T3-L1 adipocytes), UniProt P20108 63-257, looked up)
chain: TPAVTQHAPYFKGTAVVNGEFKELSLDDFKGKYLVLFFYPLDFTFVCPTEIVAFSDKANEFHDVNCEVVAVSVDSHFSHLAWINTPRKNGGLGHMNITLLSDITKQISRDYGVLLESAGIALRGLFIIDPNGVVKHLSVNDLPVGRSVEETLRLVKAFQFVETHGEVCPANWTPESPTIKPSPTASKEYFEKVHQ
notes: peroxiredoxin 3 (Prdx3), mitochondrial, endogenous in 3T3-L1 adipocytes, detected with anti-PRDX3; The dimer seen on the non-reducing gel is held by a disulfide bond formed on oxidation; also called Prdx3; PRDX3; source: endogenous, 3T3-L1 adipocyte lysate
As for B2, in series [2], the “stoichiometry N” value is 2.
